Consider one molecule from patent US20210347889A1 (Merck Sharp & Dohme, published 2021).

For the assay, the target named is T1, membrane LAG3 (membrane-bound LAG3 expressed on immune cells) (human, UniProt P18627 23-525).
T1 sequence: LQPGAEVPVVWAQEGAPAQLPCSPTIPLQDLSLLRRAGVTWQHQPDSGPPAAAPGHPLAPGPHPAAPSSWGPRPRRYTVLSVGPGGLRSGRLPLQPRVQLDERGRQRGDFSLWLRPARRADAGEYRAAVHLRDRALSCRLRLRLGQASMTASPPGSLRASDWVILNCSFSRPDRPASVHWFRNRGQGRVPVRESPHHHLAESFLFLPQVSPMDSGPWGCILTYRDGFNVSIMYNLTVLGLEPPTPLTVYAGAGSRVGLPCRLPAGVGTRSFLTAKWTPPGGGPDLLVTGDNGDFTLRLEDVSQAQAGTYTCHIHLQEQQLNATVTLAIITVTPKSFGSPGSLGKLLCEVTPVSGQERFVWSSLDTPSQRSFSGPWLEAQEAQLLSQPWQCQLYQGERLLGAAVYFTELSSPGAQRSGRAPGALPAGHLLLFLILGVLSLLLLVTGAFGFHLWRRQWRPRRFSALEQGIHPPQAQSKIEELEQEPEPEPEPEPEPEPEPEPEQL
The assay can be described thus: statement in Example 2 (rationale for sLAG3 as target engagement marker); no assay described.

B1: anti-LAG3 antibody Ab6 (antibody, human IgG4 S228P, kappa, V domains shown)
VH: QMQLVQSGPEVKKPGTSVKVSCKASGYTFTDYNVDWVRQARGQRLEWIGDINPNDGGTIYAQKFQERVTITVDKSTSTAYMELSSLRSEDTAVYYCARNYRWFGAMDHWGQGTTVTVSS
VL: DIVMTQTPLSLSVTPGQPASISCKASQSLDYEGDSDMNWYLQKPGQPPQLLIYGASNLESGVPDRFSGSGSGTDFTLKISRVEAEDVGVYYCQQSTEDPRTFGGGTKVEIKR
notes: The claims say two heavy and two light chains
Turning to B1, the binding result is “binds”.
